Values quoted from earlier work as cited in patent US20060234299A1, “Protein scaffolds and uses thereof” (Avidia Research Institute, priority 2004, published 2006).

Conditions: commercial drugs

Substance | Human T½ [h]
Enbrel | 103
Remicade: TNFa Antibody | 216
Rituxan: CD20 Antibody | 78
